Assay results: publication PMC5745072

Assay: Hampton Screens I and II, vapor diffusion
Settings: glycan lost; control: glycosylated GOx from P. pastoris

B1: Glucose oxidase (GOx), mutants A2 and F9: Endo H (protein)
parent chain: MQTLLVSSLVVSLAAALPHYIRSNGIEASLLTDPKDVSGRTVDYIIAGGGLTGLTTAARLTENPNISVLVIESGSYESDRGPIIEDLNAYGDIFGSSVDHAYETVELATNNQTALIRSGNGLGGSTLVNGGTWTRPHKAQVDSWETVFGNEGWNWDNVAAYSLQAERARAPNAKQIAAGHYFNASCHGVNGTVHAGPRDTGDDYSPIVKALMSAVEDRGVPTKKDFGCGDPHGVSMFPNTLHEDQVRSDAAREWLLPNYQRPNLQVLTGQYVGKVLLSQNGTTPRAVGVEFGTHKGNTHNVYAKHEVLLAAGSAVSPTILEYSGIGMKSILEPLGIDTVVDLPVGLNLQDQTTATVRSRITSAGAGQGQAAWFATFNETFGDYSEKAHELLNTKLEQWAEEAVARGGFHNTTALLIQYENYRDWIVNHNVAYSELFLDTAGVASFDVWDLLPFTRGYVHILDKDPYLHHFAYDPQYFLNELDLLGQAAATQLARNISNSGAMQTYFAGETIPGDNLAYDADLSAWTEYIPYHFRPNYHGVGTCSMMPKEMGGVVDNAARVYGVQGLRVIDGSIPPTQMSSHVMTVFYAMALKISDAILEDYASMQ
**Q.** With B1 as the protein, how does the “other: crystallisability” value read?
**A.** The value was “increases”.
